Measured values taken from article PMC5466061.

B1: (GGGTTA)4 (structured_DNA)
DNA: GGGTTAGGGTTAGGGTTAGGG
B2: (GGGTTA)6 (structured_DNA)
DNA: GGGTTAGGGTTAGGGTTAGGGTTAGGGTTAGGGTTA
B3: n5M4 (structured_DNA)
DNA: GGGTTTGGGTTTGGGTTTTTTTTTGGG
B4: 111 (structured_DNA)
DNA: GGGTGGGTGGGTGGG
B5: (GGGTTA)8 (structured_DNA)
DNA: TCGAGGGTTAGGGTTAGGGTTAGGGTTAGGGTTAGGGTTAGGGTTAGGGTTAC
B6: bcl-2 (structured_DNA)
DNA: AGGGGCGGGCGCGGGAGGAAGGGGGCGGGAGCGGGGCTG
B7: (GGGTTT)4 = 333 (structured_DNA)
DNA: GGGTTTGGGTTTGGGTTTGGG
B8: c-myc (structured_DNA)
DNA: TGGGGAGGGTGGGGAGGGTGGGGAAGG
B9: hTert 5-12 (structured_DNA)
DNA: AGGGGGCTGGGCCGGGGACCCGGGAGGGGTCGGGACGGGGCGGGGT
B10: hTert 1-12 (structured_DNA)
DNA: AGGGGAGGGGCTGGGAGGGCCCGGAGGGGGCTGGGCCGGGGACCCGGGAGGGGTCGGGACGGGGCGGGGT
B11: (GGGTTT)6 (structured_DNA)
DNA: GGGTTTGGGTTTGGGTTTGGGTTTGGGTTTGGGTTT
B12: (GGGTTT)8 (structured_DNA)
DNA: GGGTTTGGGTTTGGGTTTGGGTTTGGGTTTGGGTTTGGGTTTGGGTTT
B13: (GGGTTT)5 (structured_DNA)
DNA: GGGTTTGGGTTTGGGTTTGGGTTTGGG
B14: n5M2 (structured_DNA)
DNA: GGGTTTTTTTTTGGGTTTGGGTTTGGG
B15: n5M3 (structured_DNA)
DNA: GGGTTTGGGTTTTTTTTTGGGTTTGGG

Each binder was assayed against nucleolin (NCL) (Homo sapiens, UniProt P19338 1-710) (assay: EMSA).
Chain of nucleolin (NCL) (P19338 whole entry): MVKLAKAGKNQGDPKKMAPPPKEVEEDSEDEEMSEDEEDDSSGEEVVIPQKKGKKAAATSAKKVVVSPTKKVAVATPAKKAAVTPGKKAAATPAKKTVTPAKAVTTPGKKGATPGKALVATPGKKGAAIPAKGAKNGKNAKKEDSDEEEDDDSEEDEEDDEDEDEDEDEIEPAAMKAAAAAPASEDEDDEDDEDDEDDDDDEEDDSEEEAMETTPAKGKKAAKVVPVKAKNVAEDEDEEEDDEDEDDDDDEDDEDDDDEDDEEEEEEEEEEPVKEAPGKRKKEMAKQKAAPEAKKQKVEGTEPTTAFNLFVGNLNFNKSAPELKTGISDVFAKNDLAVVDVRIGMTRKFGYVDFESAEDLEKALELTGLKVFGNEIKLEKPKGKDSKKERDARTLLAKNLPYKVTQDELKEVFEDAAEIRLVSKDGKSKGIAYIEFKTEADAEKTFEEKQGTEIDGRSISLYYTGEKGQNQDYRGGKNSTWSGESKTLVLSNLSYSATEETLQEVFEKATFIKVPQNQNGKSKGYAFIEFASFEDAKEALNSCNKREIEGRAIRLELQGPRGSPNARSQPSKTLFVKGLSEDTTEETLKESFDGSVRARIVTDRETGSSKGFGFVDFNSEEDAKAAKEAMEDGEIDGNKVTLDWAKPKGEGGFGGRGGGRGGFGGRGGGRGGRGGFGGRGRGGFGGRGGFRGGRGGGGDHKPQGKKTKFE

| Binder | binding result |
| --- | --- |
| B1 | binds |
| B2 | binds |
| B3 | binds |
| B4 | binds |
| B5 | binds |
| B6 | binds |
| B7 | binds |
| B8 | binds |
| B9 | binds |
| B10 | binds |
| B11 | binds |
| B12 | binds |
| B13 | binds |
| B14 | binds |
| B15 | binds |
